Article PMC5007037

Molecular target: FcαRI (CD89) (human (endogenous in primary monocytes)) (UniProt P24071)
UniProt P24071, sequence (P24071 22-287): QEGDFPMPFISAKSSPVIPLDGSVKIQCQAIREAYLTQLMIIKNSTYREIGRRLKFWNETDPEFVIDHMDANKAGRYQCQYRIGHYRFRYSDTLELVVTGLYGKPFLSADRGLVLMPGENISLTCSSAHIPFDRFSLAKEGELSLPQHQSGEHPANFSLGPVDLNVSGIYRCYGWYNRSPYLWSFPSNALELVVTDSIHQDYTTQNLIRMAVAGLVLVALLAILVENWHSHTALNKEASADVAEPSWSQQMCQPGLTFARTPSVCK

CH31 dIgA2 (antibody)
percent blocking of IgA-mediated phagocytosis of 0.2 μm ConSgp140-conjugated beads by primary monocytes pre-incubated with 5 μg/ml anti-human CD89 mAb (MIP8a): 91.5% | percent blocking of IgA-mediated phagocytosis of ConSgp140CFI-conjugated 1 μm beads by primary monocytes pre-incubated with anti-human CD89 mAb (MIP8a) at 1, 5 and 25 μg/ml (70%, 74%, 78%): 78%
